Like-named read-outs stand apart in the source and are kept apart here.

Consider one substance from PMC5805711.

The target of data set [1] is T1, His68 (UniProt position 68, KESTLHLVLRL). The conditions noted are these: Ubiquitin; form not further specified (literature value); cited from earlier work.
Data set [2] deals with T1, His68. As to the kind of experiment: NMR. The conditions noted are these: 23 °C; Not stated explicitly for Ub^WT; described as 'a similar pH titration' to that of pUb in citric acid-phosphate buffer; Free wild-type ubiquitin, folded.

On to “Ubiquitin (Ub^WT) (Homo sapiens (inferred; the article does not state the species of the ubiquitin))”, for which the figures for the pKa in the data set with His68 [1] and in the data set with His68 [2] were 5.5 and 5.7, respectively.
